Values of other authors as cited in patent US20060024387A1, “Methods and compositions for increasing milk production in animals” (priority 2004, published 2006).

Details: injection

B1: BST: Hormone injected to increase milk production in lactating cows (protein, UniProt P01246 27-217, looked up)
Somatotropin: AFPAMSLSGLFANAVLRAQHLHQLAADTFKEFERTYIPEGQRYSIQNTQVAFCFSETIPAPTGKNEAQQKSDLELLRISLLLIQSWLGPLQFLSRVFTNSLVFGTSDRVYEKLKDLEEGILALMRELEDGTPRAGQILKQTYDKFDTNMRSDDALLKNYGLLSCFRKDLHKTETYLRVMKCRRFGEASCAF
effect on milk production: increase milk production
